# B1: C1orf137 (parent)
# chain: RQHHHQSSFPGSLPQETNLTLKVC
# Variants of: B1
# Experiment: protein stability index of a GFP-peptide fusion (GPS, HEK-293T) (PSI 1-6); higher = more stable
# Details: c terminus: a fixed tail appended
# 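Also: lentivirally expressed fusions sorted by FACS into six bins by GFP to DsRed ratio, PSI derived from sequencing read proportions per bin multiplied by bin number.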
row,Variant,protein stability index
1,RQHHHQSSFPGSLPQETNLTLLVC,1.94
2,RQHHHQSSFPGSLPQETNLTLSVC,3.34
3,RQHHHQSSFPGSLPQETNLTLEVC,3.44
4,RQHHHQSSFPGSLPRETNLTLKVC,2.54
5,RQHHHQSSFPGSLPSETNLTLKVC,3.36
6,RQHHHQSSFPGSLPGETNLTLKVC,2.19
7,RQHHHQSSFPGSLPFETNLTLKVC,1.71
8,RQHHHQSSFPGSLPNETNLTLKVC,2.47
9,RQHHHQSSFPGSLPTETNLTLKVC,3.34
10,RQHHHQSSFPGSLPKETNLTLKVC,2.46
11,RQHHHQSSFPGSLPDETNLTLKVC,3.26
12,RQHHHQQSFPGSLPQETNLTLKVC,3.05
13,RQHHHQLSFPGSLPQETNLTLKVC,2.79
14,RQHHHQWSFPGSLPQETNLTLKVC,2.43
15,RQHHHQCSFPGSLPQETNLTLKVC,2.43
16,RQHHHQPSFPGSLPQETNLTLKVC,3.52
17,RQHHHQTSFPGSLPQETNLTLKVC,3.34
18,RQHHHQGSFPGSLPQETNLTLKVC,3.18
19,RQHHHQNSFPGSLPQETNLTLKVC,3.68
20,RQHHHQYSFPGSLPQETNLTLKVC,2.54
21,RQHHHQISFPGSLPQETNLTLKVC,2.77
22,RQHHHQSSFPGSLPQETNLTLKVP,3.51
23,RQHHHQSSFPGSLPQETNLTLKVT,3.37
24,RQHHHQSSFPGSLPQETNLTLKVA,3.64

row,Variant,protein stability index
1,RQHHHQSSFPGSLPQETNLTLKVL,3.74
2,RQHHHQSSFPGSLPQETNLTLKVD,4.36
3,RQHHHQSSFPGSLPQETNLTLKVR,4.68
4,RQHHHQSSFPGSLPQETNLTLKVG,3.75
5,RQHHHQSSFPGSLPQETNLTLKVF,1.9
6,RQHHHQSSFPGSLPQETNLTLKVI,1.9
7,RQHHHQSSFPGSLLQETNLTLKVC,2.29
8,RQHHHQSSFPGSLIQETNLTLKVC,2.24
9,RQHHHQSSFPGSLCQETNLTLKVC,2.85
10,RQHHHQSSFPGSLWQETNLTLKVC,1.62
11,RQHHHQSSFPGSLVQETNLTLKVC,2.55
12,RQHHHQSSFPFSLPQETNLTLKVC,2.28
13,RQHHHQSSFPISLPQETNLTLKVC,2.85
14,RQHHHQSSFPVSLPQETNLTLKVC,2.98
15,RQHHHQSSFPPSLPQETNLTLKVC,2.53
16,RQHHHQSSFPKSLPQETNLTLKVC,3.79
17,RQHHHQSSFPNSLPQETNLTLKVC,3.01
18,RQHHHQSSFPESLPQETNLTLKVC,4.03
19,RQHHHQSSFPHSLPQETNLTLKVC,2.98
20,RQHHHQSSFPDSLPQETNLTLKVC,2.25
21,RQHHHQSSFPGMLPQETNLTLKVC,2.73
22,RQHHHQSSFPGHLPQETNLTLKVC,2.38
23,RQHHHQSSFPGVLPQETNLTLKVC,3.38
24,RQHHHQSSFPGNLPQETNLTLKVC,2.99

row,Variant,protein stability index
1,RQHHHQSSFPGSLPQETNLGLKVC,3.23
2,RQHHHQSSFPGSLPQETNLYLKVC,1.75
3,RQHHHQSSFPGSLPQETNLHLKVC,2.48
4,RQHHHQSSFPGSLPQETNLQLKVC,3.83
5,RQHHHQSSFPGSLPQETNLELKVC,3.61
6,RQHHHQSSFPGSLPQETNLNLKVC,3.16
7,RQHHHQSSFPGSLPQETNLSLKVC,3.29
8,RQHHHQSSFPGSLPQETNLALKVC,3
9,RQHHHQSSFPGSLPQETNLPLKVC,3.62
10,RQHHHQSSFPGSLPQETNLKLKVC,2.64
11,RQHHHQSSFPGSLPQETNLMLKVC,2.63
12,RQHHHQSSFPGSLPQETNLWLKVC,2.18
13,RQHHHQSSFPGSLPQETNLFLKVC,2.09
14,RQHHHESSFPGSLPQETNLTLKVC,2.88
15,RQHHHSSSFPGSLPQETNLTLKVC,3.25
16,RQHHHDSSFPGSLPQETNLTLKVC,3.39
17,RQHHHISSFPGSLPQETNLTLKVC,2.37
18,RQHHHWSSFPGSLPQETNLTLKVC,2.27
19,RQHHHGSSFPGSLPQETNLTLKVC,3.22
20,RQHHHHSSFPGSLPQETNLTLKVC,3.36
21,RQHHHQSSFPGSLPQLTNLTLKVC,1.7
22,RQHHHQSSFPGSLPQTTNLTLKVC,2.69
23,RQHHHQSSFPGSLPQRTNLTLKVC,2.34
24,RQHHHQSSFPGSLPQGTNLTLKVC,2.39

row,Variant,protein stability index
1,RQHHHQSSFPGSLPQHTNLTLKVC,2.87
2,RQHHHQSSFPGSLPQATNLTLKVC,2.33
3,RQHHHQSSFPGSLPQKTNLTLKVC,2.57
4,RQHHHQSSFPGSLPQMTNLTLKVC,2.48
5,RQHHHQSSFPGSLPQPTNLTLKVC,2.99
6,RQHHCQSSFPGSLPQETNLTLKVC,3.25
7,RQHHPQSSFPGSLPQETNLTLKVC,2.9
8,RQHHTQSSFPGSLPQETNLTLKVC,3.28
9,RQHHDQSSFPGSLPQETNLTLKVC,3.36
10,RQHHSQSSFPGSLPQETNLTLKVC,2.51
11,RQHHYQSSFPGSLPQETNLTLKVC,2.85
12,RQHHAQSSFPGSLPQETNLTLKVC,3.06
13,RQHHHQSSFPGSLPQETNQTLKVC,3.52
14,RQHHHQSSFPGSLPQETNGTLKVC,3.98
15,RQHHHQSSFPGSLPQETNDTLKVC,4.63
16,RQHHHQSSFPGSLPQETNKTLKVC,3.99
17,RQHHHQSSMPGSLPQETNLTLKVC,3.18
18,RQHHHQSSAPGSLPQETNLTLKVC,3.97
19,RQHHHQSSLPGSLPQETNLTLKVC,3.53
20,RQHHHQSSHPGSLPQETNLTLKVC,3.64
21,RQHHHQSSKPGSLPQETNLTLKVC,4.33
22,RQHHHQSSCPGSLPQETNLTLKVC,3.16
